For test [1], the target named is T1, human DLL4, full length, overexpressed on cells (human, UniProt Q9NR61 27-685).
T1 construct: CHO cells in FMAT, HEK293 cells in the reporter assay; also called hDLL4; CHO-hDLL4
Put plainly: FMAT, hNotch1-Fc on CHO-hDLL4, +25 uM HSA.

Test [2] has as its target T2, recombinant human VEGF165 (human, UniProt P15692-4 27-191, biotinylated in the competition assays).
T2 construct: Bought protein; also called hVEGF165; rhVEGF165
Put plainly: AlphaScreen, hVEGF165/hVEGFR1-Fc competition, -HSA. Background: Bead proximity is the source of the signal in Alpha formats.

The target in test [3] is T1, human DLL4, full length, overexpressed …. The test is described as follows: cell-based or functional assay.
The target in test [4] is T2, recombinant human VEGF165. The test is described as follows: AlphaScreen, hVEGF165/hVEGFR2-Fc competition, -HSA.
Test [5] concerns the target T1, human DLL4, full length, overexpressed …. Put plainly: FMAT, hNotch1-Fc on CHO-hDLL4, -HSA.
The target of test [6] is T2, recombinant human VEGF165. Put plainly: AlphaScreen, hVEGF165/hVEGFR2-Fc competition, +5 uM HSA. The method, then:
These 2 competition assays are also performed after preincubation of the VHHs with 5 μM human serum albumin.

Test [7] concerns the target T3, mouse DLL4, full length, overexpressed on CHO cells (mouse, UniProt Q9JI71 27-686).
T3 construct: whole, on cells; also called mDLL4; CHO-mDLL4
Put plainly: FMAT, hNotch1-Fc on CHO-mDLL4, -HSA.

The target of test [8] is T3, mouse DLL4, full length, overexpressed …. The test is described as follows: FMAT, hNotch1-Fc on CHO-mDLL4, +25 uM HSA.
The target of test [9] is VEGF (used to stimulate HUVEC cells) (UniProt P15692-4 27-191, limits assumed). Put plainly: cell-based or functional assay.
VEGF (used to stimulate HUVEC cells), sequence (P15692 other isoform, or with tags, fused parts or gaps limits assumed): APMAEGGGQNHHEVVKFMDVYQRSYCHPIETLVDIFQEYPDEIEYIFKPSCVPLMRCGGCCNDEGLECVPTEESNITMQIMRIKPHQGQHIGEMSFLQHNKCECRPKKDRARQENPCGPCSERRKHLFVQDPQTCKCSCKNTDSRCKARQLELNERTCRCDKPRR
The target in test [10] is T4, human DLL4 expressed on cells (CHO-hDLL4; HEK293-hDLL4) (human, UniProt Q9NR61 27-685).
T4 construct: full length human DLL4 overexpressed on CHO cells (FMAT, FACS) or HEK293 cells (reporter assay)
The test is described as follows: competition FMAT, labelled hNotch1-Fc on CHO-hDLL4 cells.

Test [11] deals with T5, recombinant human DLL4 (C-terminally His-tagged extracellular domain, R&D Systems) (human, UniProt Q9NR61 25-522, biotinylated in the competition ELISA).
T5 construct: also called rhDLL4; hDLL4
The test is described as follows: SPR (Biacore), recombinant human DLL4. On the procedure: Kinetic analysis to determine the affinity of the DII4-VHH interaction is performed by Surface Plasmon Resonance (SPR) on a Biacore T100 instrument. […] Purified VHHs or Fab fragment are injected for 2 minutes at different concentrations (between 10 and 300 nM) and allowed to dissociate for 20 min at a flow rate of 45 μl/min. Between sample injections, the surfaces are regenerated with 10 mM glycine pH1.5 and 100 mM HCl. HBS-N (Hepes buffer pH7.4) is used as running buffer. If possible, data are evaluated by fitting a 1:1 interaction model (Langmuir binding) onto the binding curves. The affinity constant KD is calculated from resulting association and dissociation rate constants (kₐ) and […].

The target in test [12] is T4, human DLL4 expressed on cells …. Put plainly: cell-based or functional assay.
Test [13] has as its target T2, recombinant human VEGF165. Put plainly: ProteOn off-rate assay, periplasmic extract on coated hVEGF165. The method, then: One additional variant is constructed in which the potential oxidation site at position M30 (CDR1 region, see FIG. 38 indicated as bold italic residue) is removed by introduction of a M30I mutation. […] Off-rates are calculated and compared to the off-rates of the parental VEGFBII5B05.

As a reminder, the IC50 is the concentration at which inhibition is half-maximal. One may read the Kd as the equilibrium constant for the complex coming apart. One may read the koff as a measure of how fast the partners let go of each other. A word on the kon: it is a measure of how fast the partners come together.

T2 sequence (P15692 other isoform, or with tags, fused parts or gaps): as the sequence (P15692 other isoform, or with tags, fused parts or gaps limits assumed) above
T3 sequence (Q9JI71 27-686): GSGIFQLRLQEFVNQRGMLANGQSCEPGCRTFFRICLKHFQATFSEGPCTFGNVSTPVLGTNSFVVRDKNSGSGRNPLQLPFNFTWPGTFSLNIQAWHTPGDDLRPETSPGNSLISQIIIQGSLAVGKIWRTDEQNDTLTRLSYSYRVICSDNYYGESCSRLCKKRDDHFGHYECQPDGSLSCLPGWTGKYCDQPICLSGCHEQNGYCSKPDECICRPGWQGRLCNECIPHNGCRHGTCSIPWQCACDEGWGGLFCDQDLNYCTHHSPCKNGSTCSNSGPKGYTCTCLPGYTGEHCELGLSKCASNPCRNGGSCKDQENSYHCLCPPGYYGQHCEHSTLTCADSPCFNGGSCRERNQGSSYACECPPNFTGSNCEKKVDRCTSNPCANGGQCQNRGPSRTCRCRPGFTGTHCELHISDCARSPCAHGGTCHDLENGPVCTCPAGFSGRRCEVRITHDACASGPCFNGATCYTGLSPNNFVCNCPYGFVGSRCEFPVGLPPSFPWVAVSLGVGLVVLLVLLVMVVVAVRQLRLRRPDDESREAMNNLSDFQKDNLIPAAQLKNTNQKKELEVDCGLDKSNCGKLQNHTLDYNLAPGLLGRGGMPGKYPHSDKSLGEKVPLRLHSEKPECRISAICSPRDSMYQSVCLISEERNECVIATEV

B1: VEGFDLLBII012 (bispecific antibody)
chain: EVQLVESGGGLVQTGDSLRLSCEVSGRTFSSYSMGWFRQAQGKEREFVVAISKGGYKYDSVSLEGRFTISKDNAKNTVYLQINSLKPEDTAVYYCASSRAYGSSRLRLADTYEYWGQGTQVTVSSGGGGSGGGGSGGGGCGGGGSGGGGSGGGGSGGGGSEVQLVESGGGLVQPGGSLRLSCAASGFTFGSYDMSWVRRSPGKGPEWVSSINSGGGSTYYADYVKGRFTISRDNAKNTLYLQMNSLKPEDTAVYYCAADRYIWARQGEYWGAYEYDYWGQGTQVTVSS
modifications: PEGylated at the Cys at position 15 of the 35 Gly-Ser linker
notes: VEGFBII23B04 - 35GS(Cys15) - DLLBII136C07
B1: the “% inh” value in test [1] is 100%; in test [2] it was 60%; in [4], 100%; in test [5], 100%; in test [6], 100%; in test [7], 100%. In test [8], the “% inh” value turned out to be 100%. In addition, the IC50 in [1] is 41.5 nM; in test [2], 0.27 nM; in test [4], 0.19 nM; in [5], 44.9 nM; in test [6] it was 0.22 nM; in test [7], 95.3 nM. The molecule also yielded an IC50 in [8] of 103 nM. For the same molecule, the “IC50, DLL4 mediated reporter assay, +HSA” value in [3] was 582 nM.

B2: VEGFDLLBII014 (bispecific antibody)
chain: EVQLVESGGGLVQTGDSLRLSCEVSGRTFSSYSMGWFRQAQGKEREFVVAISKGGYKYDSVSLEGRFTISKDNAKNTVYLQINSLKPEDTAVYYCASSRAYGSSRLRLADTYEYWGQGTQVTVSSGGGGSGGGSEVQLVESGGGLVQPGGSLRLSCVASGIRFMSMAWYRQAPGKHRELVARISSGGTTAYVDSVKGRFTISRDNSKNTVYLQMNSLKAEDTAVYYCNTFSSRPNPWGAGTQVTVSSGGGGSGGGGSGGGGCGGGGSGGGGSGGGGSGGGGSEVQLVESGGGLVQAGGSLRLSCAASGRTFSSYAMAWYRQAPGKEREYVAAIRWSGGTAYYADSVQGRFTISRDNAKNTVYLQMNSLKPEDTAVYYCANRAPDTRLAPYEYDHWGQGTQVTVSS
modifications: PEGylated at the Cys at position 15 of the 35 Gly-Ser linker
notes: VEGFBII23B04 - 9GS - VEGFBII5B05 - 35GS(Cys15) - DLLBII129B05
Consider B2, for which the “% inh” value in test [1] is 100%; in test [2], 94%; in test [4], 100%; in test [5], 100%; in [6] it was 100%; in test [7], 100%. The “% inh” value in test [8] was found to be 100%. The IC50 in test [1] is 12.3 nM; in test [2], 0.08 nM; in test [4], 0.026 nM; in test [5], 9.9 nM; in test [6] it was 0.024 nM; in [7], 15.4 nM. In test [8], this molecule came in with an IC50 of 15.4 nM. In addition, in test [3], the “IC50, DLL4 mediated reporter assay, +HSA” value worked out at 122 nM. The “% inhibition, VEGF HUVEC proliferation assay, -HSA” value (shortened to “% inhibition”) in test [9] amounted to 98%. Further, the “IC50, VEGF HUVEC proliferation assay, -HSA” value (from here on “IC50 … -HSA”) in [9] stood at 0.49 nM.

B3: VEGFDLLBII013 (bispecific antibody)
chain: EVQLVESGGGLVQTGDSLRLSCEVSGRTFSSYSMGWFRQAQGKEREFVVAISKGGYKYDSVSLEGRFTISKDNAKNTVYLQINSLKPEDTAVYYCASSRAYGSSRLRLADTYEYWGQGTQVTVSSGGGGSGGGGSGGGGCGGGGSGGGGSGGGGSGGGGSEVQLVESGGGLVQAGGSLRLSCAASGRTFSSYAMAWYRQAPGKEREYVAAIRWSGGTAYYADSVQGRFTISRDNAKNTVYLQMNSLKPEDTAVYYCANRAPDTRLAPYEYDHWGQGTQVTVSS
modifications: PEGylated at the Cys at position 15 of the 35 Gly-Ser linker
notes: VEGFBII23B04 - 35GS(Cys15) - DLLBII129B05
As to B3, the “% inh” value was 100% in test [1]; 62% in test [2]; 100% in test [4]; 100% in test [5]; 100% in test [6]; 100% in test [7]. Moreover, the “% inh” value in test [8] was 100%. Besides, the IC50 came to 12.4 nM in test [1]; 0.24 nM in test [2]; 0.18 nM in [4]; 12.2 nM in [5]; 0.17 nM in test [6]; 19.3 nM in [7]. The molecule also showed an IC50 in test [8] of 23.8 nM. Moreover, the “IC50, DLL4 mediated reporter assay, +HSA” value in test [3] worked out at 98.5 nM. Besides, the “% inhibition” value in test [9] is 92%. Further, the “IC50 … -HSA” value in [9] was 0.73 nM.

B4: DLLBII017 (VHH, not shown: small tags and cut ends)
VHH: EVQLVESGGGLVQPGGSLRLSCAASGRTFSSYAMAWYRQAPGKEREYVAAIRWSGGTAYYADSVQGRFTISRDNAKNTVYLQMNSLRPEDTAVYYCANRAPDTRLAPYEYDHWGQGTLVTVSS
In turn, B4 registered an IC50 in test [10] of 12.1 nM. In addition, in test [11], the Kd came to 0.2 nM, the koff came to 8e-05 s⁻¹ and the kon was found to be 370000 M⁻¹ s⁻¹. Moreover, the “IC50, DLL4-mediated reporter assay (hDLL4)” value in [12] worked out at 126 nM.

B5: VEGFBII119G11 (VHH)
VHH: EVQLVESGGGLVQPGGSLRLSCAASGIRFMSMAWYRQAPGKQRELVARISSGGTTAYADSVKGRFTISRDNSKNTVYLQMNSLRAEDTAVYYCNTFSSRPNPWGQGTLVTVSS
notes: Humanization variant of VEGFBII5B05; tested as periplasmic extract
For the molecule B5, in [13], the “binding level (RU)” value stood at 234 RU and the koff stood at 0.0775 s⁻¹.

B6: VEGFBII120E10 (VHH)
VHH: EVQLVESGGGLVQPGGSLRLSCVASGIRFISMAWYRQAPGKHRELVARISSGGTTAYVDSVKGRFTISRDNSKNTVYLQMNSLKAEDTAVYYCNTFSSRPNPWGAGTQVTVSS
notes: M30I variant of VEGFBII5B05; tested as periplasmic extract
For the molecule B6, in [13], the “binding level (RU)” value was determined as 257 RU and the koff came out at 0.0468 s⁻¹.

B7: DLLBII136C07 (VHH, not shown: small tags and cut ends)
VHH: EVQLVESGGGLVQPGGSLRLSCAASGFTFGSYDMSWVRRSPGKGPEWVSSINSGGGSTYYADYVKGRFTISRDNAKNTLYLQMNSLKPEDTAVYYCAADRYIWARQGEYWGAYEYDYWGQGTQVTVSS
Regarding B7, the “% inh” value was 94% in test [1], 94% in test [5], 100% in test [7] and 100% in test [8]. For the same molecule, the IC50 was determined as 7.1 nM in [1], 6.8 nM in [5], 16.4 nM in test [7] and 17.6 nM in test [8]. For the same molecule, in test [3], the “IC50, DLL4 mediated reporter assay, +HSA” value came to 103 nM.

B8: VEGFDLLBII015 (bispecific antibody)
chain: EVQLVESGGGLVQTGDSLRLSCEVSGRTFSSYSMGWFRQAQGKEREFVVAISKGGYKYDSVSLEGRFTISKDNAKNTVYLQINSLKPEDTAVYYCASSRAYGSSRLRLADTYEYWGQGTQVTVSSGGGGSGGGGSGGGGCGGGGSGGGGSGGGGSGGGGSEVQLVESGGGLVQPGGSLRLSCVASGIRFMSMAWYRQAPGKHRELVARISSGGTTAYVDSVKGRFTISRDNSKNTVYLQMNSLKAEDTAVYYCNTFSSRPNPWGAGTQVTVSSGGGGSGGGGSGGGGSGGGGSGGGGSGGGGSGGGGSEVQLVESGGGLVQAGGSLRLSCAASGRTFSSYAMAWYRQAPGKEREYVAAIRWSGGTAYYADSVQGRFTISRDNAKNTVYLQMNSLKPEDTAVYYCANRAPDTRLAPYEYDHWGQGTQVTVSS
modifications: PEGylated at the Cys at position 15 of the 35 Gly-Ser linker
notes: VEGFBII23B04 - 35GS(Cys15) - VEGFBII5B05 - 35GS - DLLBII129B05
B8: the “% inh” value came to 100% in test [1]; 96% in test [2]; 100% in [4]; 100% in test [5]; 100% in [6]; 100% in [7]. Moreover, the “% inh” value in [8] was 100%. Also, the IC50 in [1] was 10 nM; in test [2] it was 0.04 nM; in test [4], 0.016 nM; in [5] it was 9.5 nM; in test [6] it was 0.015 nM; in test [7], 12.2 nM. In [8], this molecule yielded an IC50 of 11.2 nM. Also, the “IC50, DLL4 mediated reporter assay, +HSA” value in test [3] was 134 nM. The “% inhibition” value in test [9] came out at 109%. In test [9], the “IC50 … -HSA” value was 0.49 nM.

(Values after patent publication US20140120095A1 (Boehringer Ingelheim, published 2014).)
